Among the data in paper doi:10.1101/2024.10.21.619360 are Kd, response and stoichiometry N values, retold here.

Experiment [1] deals with bovine complement factor I (bovine (B. taurus)). Description: BLI; biotinylated bovine FI (150 nM) on streptavidin biosensors, PmSLP-1 as analyte at 0-1600 nM, Octet RED96, 30°C, PBS pH 7.4 with 0.01% Tween 20; steady-state analysis, one-site fit.
The target of experiment [2] is bovine complement factor I. Description: BLI. The settings on record: 1600 nM PmSLP-1 mutant; biotinylated bovine FI on streptavidin sensors; 3 independent replicates; read off a plot.
In experiment [3] the target is bovine complement factor I. Kind of experiment: biolayer interferometry. The settings on record: n=3; parent: 27 ± 6.
Experiment [4] addresses bovine complement factor I (bovine (B. taurus)). Description: cryo-EM structure; PmSLP-1 and FI mixed 5:1, complex isolated on Superdex Increase 200 in PBS pH 7.4, 0.25 mg/mL on gold grids, 40° tilt; dimer of the complex, protomer refined to 3.5 Å.

In experiment [1], “PmSLP-1^15 (PmSLP-1^15-318), surface lipoprotein of Pasteurella multocida strain 36950 (domain or fragment)” registered a Kd of 27 nM.

In experiment [2], “PmSLP-1^15 (PmSLP-1^15-318), surface lipoprotein of Pasteurella multocida strain 36950 D121A” gave a response of 0.19 AU. The Kd in experiment [3] stood at 117 nM.

Substance “PmSLP-1^15 (PmSLP-1^15-318), surface lipoprotein of Pasteurella multocida strain 36950 D124R” registered a response in experiment [2] of 0.24 AU. For the same substance, the Kd in experiment [3] is 53 nM.

“PmSLP-1^15 (PmSLP-1^15-318), surface lipoprotein of Pasteurella multocida strain 36950 D210A” had a response in experiment [2] of 0.14 AU. Moreover, the Kd in experiment [3] was found to be 272 nM.

For the substance “PmSLP-1^15 (PmSLP-1^15-318), surface lipoprotein of Pasteurella multocida strain 36950 E132R”, the response in experiment [2] came to 0.22 AU. In experiment [3], the Kd is 28 nM.

For “PmSLP-1^15 (PmSLP-1^15-318), surface lipoprotein of Pasteurella multocida strain 36950 E240A”, the response in experiment [2] was -0.0015 AU.

In experiment [2], “PmSLP-1^15 (PmSLP-1^15-318), surface lipoprotein of Pasteurella multocida strain 36950 I133D” registered a response of 0.24 AU. Besides, the Kd in experiment [3] is 43 nM.

“PmSLP-1^15 (PmSLP-1^15-318), surface lipoprotein of Pasteurella multocida strain 36950 K236E” showed a response in experiment [2] of 0.24 AU. The Kd in experiment [3] was 33 nM.

For the substance “PmSLP-1^15 (PmSLP-1^15-318), surface lipoprotein of Pasteurella multocida strain 36950 L127D”, the response in experiment [2] came to 0.23 AU. In experiment [3], the Kd was 85 nM.

With “PmSLP-1^15 (PmSLP-1^15-318), surface lipoprotein of Pasteurella multocida strain 36950 R167A”, the response in experiment [2] came out at 0.18 AU. Besides, the Kd in experiment [3] turned out to be 107 nM.

In turn, “PmSLP-1^95 (PmSLP-1^95-318 SERp) (domain or fragment)” yielded a Kd in experiment [1] of 39 nM.

As to bovine complement factor I (enzyme), the stoichiometry N in experiment [4] amounted to 2.
